Results on one molecule are retold here after PMC6952110, “A divergent CheW confers plasticity to nucleoid-associated chemosensory arrays” (PLoS Genetics, 2019).

The target of the assay is T1, 6His-FrzCD (M. xanthus, UniProt P43500 1-417).
T1 construct: FrzCD, cytoplasmic methyl-accepting chemotaxis protein of the Frz system, Myxococcus xanthus; also called cytoplasmic MCP of the Frz system; source: E. coli BL21(DE3); in lysate (co-purification) and purified on NiNTA resin (BLi)
T1 sequence (looked up): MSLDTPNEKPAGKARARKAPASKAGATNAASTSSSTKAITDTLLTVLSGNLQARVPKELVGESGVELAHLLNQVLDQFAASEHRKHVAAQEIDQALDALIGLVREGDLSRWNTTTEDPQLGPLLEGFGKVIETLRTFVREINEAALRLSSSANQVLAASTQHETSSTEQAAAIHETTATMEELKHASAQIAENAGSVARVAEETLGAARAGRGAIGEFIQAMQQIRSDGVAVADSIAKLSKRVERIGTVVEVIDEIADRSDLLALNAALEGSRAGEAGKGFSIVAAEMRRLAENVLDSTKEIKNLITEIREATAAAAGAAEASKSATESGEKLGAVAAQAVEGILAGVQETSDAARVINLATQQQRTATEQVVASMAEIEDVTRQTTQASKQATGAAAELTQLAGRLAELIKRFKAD
The assay is described as follows: BLI; BLItz, 25°C; 6His-tagged ligand immobilised on Ni-NTA biosensors at 4 μM; GST-FrzB as analyte at 0.2 to 20 μM; Tris HCl 50 mM pH8, NaCl 300 mM; global 1:1 fit; double reference subtraction. The settings on record: both partners purified. On the technique in general: BLI is a label-free optical method that tracks binding on a fibre tip over time.

One may read the Kd as the concentration at which binding is half-saturated. A higher Kd goes with a looser complex.

B1: GST-FrzB (natural protein, M. xanthus, UniProt P43499 1-112, looked up)
chain: MDLLFFDIGATLYGTDASQVLRIDRALPEDLTLAELGLPHRGNRAIVFDTPEGEAHLKVDAVHGVRSIPVNSLRRMPPTAGAAAYAVGVCLEEARTVLLIDLVETARTQGRH
notes: FrzB, CheW-like protein of the Frz chemosensory system, Myxococcus xanthus, Uniprot P43499; also called divergent CheW; source: E. coli BL21(DE3)
For B1, the Kd is 700 nM.
